Target: the molecule itself
Assay: mass photometry; sample 25 to 100 nM in a gasket well on glass coverslips, acquisition for 60 s; mass from contrast comparison with bovine serum albumin calibrants

B1: Cavin1 (1–190) (domain or fragment, UniProt O54724 1-190, looked up)
chain: MEDVTLHIVERPYSGFPDASSEGPEPTQGEARATEEPSGTGSDELIKSDQVNGVLVLSLLDKIIGAVDQIQLTQAQLEERQAEMEGAVQSIQGELSKLGKAHATTSNTVSKLLEKVRKVSVNVKTVRGSLERQAGQIKKLEVNEAELLRRRNFKVMIYQDEVKLPAKLSVSKSLKESEALPEKEGDELGE
notes: Cavin1, residues 1 to 190 (DR1 1–43, HR1 45–155, DR2 156–190); By mass photometry it was detected as trimers and also as monomers; also called N-terminal part (residues 1 to 190); DR1–HR1–DR2; source: E. coli Rosetta pLysS or BL21(DE3)pLysS, purified (TALON Superflow, gel filtration on Sephacryl S-300 HR)
- stoichiometry N: 3

Source: PMC9231606, “Membrane insertion mechanism of the caveola coat protein Cavin1” (Proceedings of the National Academy of Sciences of the …, 2022)
